Data set [1] addresses T1, NOX4 (Homo sapiens, UniProt Q9NPH5).
T1 construct: Human hepatocytes (5200, ScienCell) were maintained in hepatocyte medium; host or cells: primary human hepatocytes
Kind of data set: NOX4 inhibitor in rhIL11-stimulated human hepatocytes. The data set is classed as cell-based. Particulars: rhIL11 10 ng ml^-1, 24 h.

The test system of data set [2] is human hepatocytes. Kind of data set: APAP-mediated hepatocyte death, Annexin V/PI flow cytometry. Particulars: APAP 20 mM, 24 hours; X209 2 μg/ml. A general note: A flow cytometer gives signals particle by particle.
Method: Cells were serum-starved for 16 hours prior to their used in experiments, by culture in serum-free hepatocyte medium.
Hepatocytes were then stained using the FITC Annexin V/Dead Cell Apoptosis Kit (V13242, Thermo Fisher) according to the manufacturer's instructions, and Annexin V-FITC/PI-stained cells were analysed by flow cytometry using a BD LSRFortessa flow cytometer (BD Bioscience). 10,000 cells were analyzed per sample. Data was analyzed using FlowJo version 7 software.
Data set [3] relates to human hepatocytes. Kind of data set: APAP-mediated activation of Erk and Jnk, western blot. Particulars: APAP 10 mM, 24 hours; X209 2 μg/ml. Format: cell-based. In general terms: Immunoblotting shows a protein as a band on a membrane.
In data set [4] the test system is AILI. Put plainly: X209, NAC or NAC+X209 3 h after APAP in mice.
Method: (§1) Mice were administered anti-IL11Rα (X209) or IgG isotype control antibody at different times and doses, as described above or in the figure legends.
(§2) The levels of alanine transaminase (ALT) or aspartate aminotransferase (AST) in mouse serum and hepatocyte supernatant were measured using ALT Activity (ab105134, Abcam) or AST (ab105135, Abcam) Assay Kits. Liver glutathione sulfhydryl (GSH) measurements were performed using Glutathione Colorimetric Detection Kit (EIAGSHC, Thermo Fisher). All colorimetric assays were performed according to the manufacturer's protocol.
Western blots were carried out from hepatocyte and liver tissue lysates. Hepatocytes and tissues were homogenized in radioimmunoprecipitation assay (RIPA) buffer containing protease and phosphatase inhibitors (Thermo Fisher), followed by centrifugation to clear the lysate. Protein concentrations were determined by Bradford assay (Bio-Rad). Equal amounts of protein lysates were separated by SDS-PAGE, transferred to PVDF membrane, and subjected to immunoblot analysis for the indicated primary antibodies. Proteins were visualized using the ECL detection system (Pierce) with the appropriate secondary antibodies.
In data set [5] the test system is APAP overdose acute liver injury. Put plainly: Severe APAP overdose in mice, anti-IL11Rα antibody (X209) 16 h before. The data set is classed as in vivo, mouse. Particulars: 20 mg/kg IP 16 hours before APAP 400 mg/kg.
The subject of data set [6] is primary human hepatocytes. Kind of data set: APAP-challenged primary human hepatocytes with X209. The data set is classed as cell-based. Particulars: APAP 20 mM, X209 2 μg ml^-1, 24 h. From the text:
PI^+ve cells were quantified with the flow cytometer (Fortessa, BD Biosciences) and analyzed with FlowJo version 7 software (TreeStar).

Data set [7] relates to APAP-induced liver injury. Kind of data set: Mouse model of APAP-induced liver injury, anti-IL-11Rα antibody 16 h prior to APAP (Example 2).
Method: Liver samples were excised and fixed for 48 hours at room temperature in 10% neutral-buffered formalin (NBF), dehydrated, embedded in paraffin blocks and sectioned at 7 μm. Sections were stained with Hematoxylin&Eosin (H&E) according to standard protocol and examined by light microscopy.
Data set [8] deals with lethal APAP overdose. Put plainly: Lethal APAP overdose in mice, X209 10 h after. The data set is classed as in vivo, mouse. Particulars: for gross liver morphology / serum ALT levels versus normal (saline) control mice: day 8 after APAP 550 mg/kg, 20 mg/kg 10 h after. As for the experimental part: Mice were euthanized at 24 hours and 192 hours (8 days). Serum ALT levels were analysed as described in Example 4. Livers were harvested, and fixed as described in Example 4, and digital photographs were taken.

For data set [9], the system named is AILI. Kind of data set: X209 preventive dosing 16 h prior to APAP in mice (6.8).
Method: as §1, §2
Livers were fixed for 48 h at room temperature (RT) in 10% neutral-buffered formalin (NBF), dehydrated, embedded in paraffin blocks and sectioned at 7 μm. Sections were stained with H&E according to standard protocol and examined by light microscopy.
The subject of data set [10] is APAP overdose acute liver injury. Put plainly: Severe APAP overdose in mice, X209 10 h after. Format: in vivo, mouse. The protocol: Mice were euthanized at 24, 36 and 48 hours. Serum ALT levels were analysed as described in Example 4.
Livers were harvested, and fixed as described in Example 4, and digital photographs were taken.
Western blots were also performed on protein extracts prepared from the livers of the mice.

Where [11] appears, read: 10 mg/kg IP 16 hours prior to APAP 400 mg/kg.
Where [12] appears, read: listed as Antagonist antibody inhibitor of IL-11 mediated signalling.
[13] abbreviates: 20 mg/kg 10 h after APAP 400 mg/kg.
[14] abbreviates: 20 mg/kg IP 10 hours after APAP 400 mg/kg.

Entries after “also recorded” stand apart in the source; their conditions may differ.

T1 sequence (Q9NPH5 whole entry): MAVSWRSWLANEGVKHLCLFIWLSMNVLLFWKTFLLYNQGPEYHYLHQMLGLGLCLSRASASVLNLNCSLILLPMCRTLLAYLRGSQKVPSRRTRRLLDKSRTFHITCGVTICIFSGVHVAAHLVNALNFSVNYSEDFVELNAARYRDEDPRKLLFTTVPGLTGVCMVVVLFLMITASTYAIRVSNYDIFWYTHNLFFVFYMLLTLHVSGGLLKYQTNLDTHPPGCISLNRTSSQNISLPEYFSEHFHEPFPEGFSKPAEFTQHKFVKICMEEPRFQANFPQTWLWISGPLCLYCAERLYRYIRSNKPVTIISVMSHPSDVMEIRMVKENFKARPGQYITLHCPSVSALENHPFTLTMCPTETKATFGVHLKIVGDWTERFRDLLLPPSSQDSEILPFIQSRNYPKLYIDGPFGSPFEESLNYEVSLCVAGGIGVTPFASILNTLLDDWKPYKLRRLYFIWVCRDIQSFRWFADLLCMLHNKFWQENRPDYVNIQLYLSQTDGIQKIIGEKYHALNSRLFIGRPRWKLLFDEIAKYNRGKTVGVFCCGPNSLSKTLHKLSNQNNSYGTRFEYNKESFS
T1 sequence (P13498 2-195 partner limits assumed): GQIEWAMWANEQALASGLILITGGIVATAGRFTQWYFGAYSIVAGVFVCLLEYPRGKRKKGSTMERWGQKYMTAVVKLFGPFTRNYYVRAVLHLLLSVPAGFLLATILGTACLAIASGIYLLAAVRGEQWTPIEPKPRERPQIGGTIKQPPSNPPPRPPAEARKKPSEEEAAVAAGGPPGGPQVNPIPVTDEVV

`CN(C)c1cccc(-c2c3c(=O)n(-c4ccccc4Cl)[nH]c3cc(=O)n2C)c1` [GKT-13781]: in [1], the “IL11-stimulated GSH depletion, CASP3 activation and cell death” value is “prevented IL11-stimulated GSH depletion, CASP3 activation and cell death in a dose-dependent manner”.

B1: X209: antagonist (neutralizing) anti-IL11Rα antibody (Widjaja et al., Gastroenterology 2019; Aldevron) (antibody, V domains shown)
VH: QVQLQQPGAELVRPGSSVKLSCKASGYTFTNYWMHWLKQRPVQGLEWIGNIGPSDSKTHYNQKFKDKATLTVDKSSSTAYMQLNSLTSEDSAVYYCARGDYVLFTYWGQGTLVTVSA
VL: DIVLTQSPATLSLSPGERATLSCRASQSISNNLHWYQQKSHEAPRLLIKYASQSISGIPARFSGSGSGTDFTLSFSSLETEDFAVYFCQQSYSWPLTFGQGTKLEIK
On to B1, for which, in data set [2], the “proportion of dead hepatocytes” value is on record as “substantially reduce the proportion of dead hepatocytes”. In addition, in data set [3], the “levels of p-ERK and pJNK” value was “substantially reduce the levels of p-ERK and pJNK”. For the same molecule, in data set [4] (2.5-10 mg kg^-1 3 h after APAP), the “JNK and ERK activation” value is “Reduced JNK and ERK activation”; the “markers of liver damage and hepatic GSH levels” value was “dose-dependent improvements in markers of liver damage and in hepatic GSH levels”. Further, in data set [4] (3 h after APAP, NAC 500 mg kg^-1, X209 5 mg kg^-1), the ALT reduction was 47%. Further, in [5], the “hepatocyte necrosis, H&E” value is on record as “substantially less hepatocyte necrosis”. Also, the “serum ALT levels” value in data set [5] (24 hours after APAP) was “substantial reduction in serum ALT levels”. Moreover, in data set [6], the “APAP-induced NOX4 upregulation and depletion in hepatocyte GSH levels” value is “blocked”; the “CASP3 cleavage, cell death, ERK and JNK activation” value is “inhibited CASP3 cleavage and cell death, as well as ERK and JNK activation”. Besides, in [7] (setting [11]), the “APAP-induced loss in liver mass (liver index)” value is on record as “prevent APAP-induced loss in liver mass” and the “centrilobular necrosis, H&E liver histology” value is “reduced”. Besides, the “ALT levels lower compared to IgG control” value in data set [7] (10 mg/kg IP 16 hours prior to APAP 400 mg/kg, 24 hours post-APAP) came to 55%. Further, the “mobility and activity of the mice” value in data set [7] (24 hours post-APAP treatment) was “normal mobility and activity”. Further, in data set [8] (20 mg/kg 10 h after lethal APAP 550 mg/kg, 8 days), the “survival by the study end” value was 90%. For the same molecule, the “survival relative to IgG-treated controls” value in data set [8] (20 mg/kg IP 10 hours after APAP 550 mg/kg, monitored 8 days) is on record as “significantly improved survival”. In [8], the gross liver morphology entry is listed as “normal liver morphology” and the “serum ALT levels versus normal (saline) control mice” value is “comparable to controls”. For the same molecule, in data set [8] (setting [12]), the gross liver morphology result was “restore gross liver morphology” and the “serum ALT levels versus normal (saline) control mice” value is “not significantly different”. Further, in data set [9] (10 mg kg^-1 16 h prior to APAP), the “centrilobular necrosis, histology” value is “limited histological evidence of centrilobular necrosis” and the “hepatic GSH levels” value was “largely restored hepatic GSH levels”. Moreover, the “reduction of serum markers of liver damage” value in [9] (10 mg kg^-1 16 h prior to APAP 400 mg kg^-1) is listed as “over 70%”. In [10] (setting [13]), the “EdU staining, nuclei with recent DNA synthesis” value is “very large numbers of nuclei with evidence of recent DNA synthesis”; the “cleaved CASP3 in liver” value is reported as “reduction in cleaved CASP3 at 24 h”; the “liver damage (gross anatomy, histology, serum IL11, ALT and AST levels)” value is “largely reversed liver damage by the second day after APAP”; the “liver regeneration markers (PCNA, Cyclin D1/D3/E1, p-RB)” value was “strong upregulation of PCNA, Cyclin D1/D3/E1, and phosphorylation of RB”. Besides, in [10] (setting [14]), the gross liver morphology result is reported as “restore gross liver morphology”; the “hepatic ERK and JNK activation (p-ERK, pJNK1, pJNK2), western blot” value was “substantially reduced the levels of p-ERK, pJNK1 and pJNK2; also recorded: effectively blocked ERK and JNK activation”. Moreover, the “serum ALT levels” value in [10] (20 mg/kg IP 10 hours after APAP 400 mg/kg, 24, 36 and 48 hours) was “substantial reduction in serum ALT levels”.
